# Experimental data from patent US20160136262A1.
# B1: CR6261 (antibody, V domains shown)
# VH: EVQLVESGAEVKKPGSSVKVSCKASGGPFRSYAISWVRQAPGQGPEWMGGIIPIFGTTKYAPKFQGRVTITADDFAGTVYMELSSLRSEDTAMYYCAKHMGYQVRETMDVWGKGTTVTVSS
# VL: QSVLTQPPSVSAAPGQKVTISCSGSSSNIGNDYVSWYQQLPGTAPKLLIYDNNKRPSGIPDRFSGSKSGTSATLGITGLQTGDEANYYCATWDRRPTAYVVFGGGTKLTVLG
# Assays:
# [1] = target: T1, H1-mini2-cluster1+5+6-GCN4 without leader sequence and with FLAG-thrombin-foldon-HIS (SEQ ID NO: 6); experiment: ELISA/HTRF ratio, reference itself; details: remark: other sources report otherwise
# [2] = target: T1, H1-mini2-cluster1+5+6-GCN4 without …; experiment: ELISA signal over HTRF expression signal; average (AV); details: remark: other sources report otherwise
binder,measurement,setting,value
B1,fold increase of ratio over parental H1 mini-HA,[1],1 fold
same,ratio binding/HTRF signal,[2],5.94
